Assay results taken from patent US9937235B2, “Lipidated peptides as anti-obesity agents” (USTAV ORGANICKE CHEMIE A BIOCHEMIE AKADEMIE VED CR, V.V.I, priority 2012, dated 2018).
Where no end group is shown, it is not given here. [ ]: non-standard residue; d: D form. The star is where a group is joined. Myristoyl = CCCCCCCCCCCCCC(=O)*; Nle = CCCC[C@H](N)C(=O)O; Dap = NC[C@H](N)C(=O)O

T1: rat PrRP receptor (GPR10) in RC-4B/C cells (Rattus norvegicus, UniProt Q64121)
T1 construct: The rat pituitary cell line RC-4B/C (ATCC, Manassas, USA) was grown on 24-well plates; host or cells: RC-4B/C rat pituitary cell line
T1 sequence (Q64121 1-370): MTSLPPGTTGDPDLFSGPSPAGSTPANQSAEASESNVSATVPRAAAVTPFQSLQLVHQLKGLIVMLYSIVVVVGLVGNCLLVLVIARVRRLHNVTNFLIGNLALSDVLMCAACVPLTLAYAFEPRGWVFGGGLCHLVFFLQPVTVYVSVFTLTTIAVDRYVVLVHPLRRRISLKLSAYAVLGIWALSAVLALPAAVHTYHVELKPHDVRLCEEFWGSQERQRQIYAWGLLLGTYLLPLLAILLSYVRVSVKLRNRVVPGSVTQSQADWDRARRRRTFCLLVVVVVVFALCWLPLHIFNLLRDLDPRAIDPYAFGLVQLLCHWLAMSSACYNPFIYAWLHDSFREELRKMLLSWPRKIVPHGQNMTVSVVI

T2: rat PrRP receptor in RC-4B/C cells (rat, UniProt Q64121 1-370)
T2 construct: whole, on cells; also called the rat receptor; GPR10
T2 sequence (looked up): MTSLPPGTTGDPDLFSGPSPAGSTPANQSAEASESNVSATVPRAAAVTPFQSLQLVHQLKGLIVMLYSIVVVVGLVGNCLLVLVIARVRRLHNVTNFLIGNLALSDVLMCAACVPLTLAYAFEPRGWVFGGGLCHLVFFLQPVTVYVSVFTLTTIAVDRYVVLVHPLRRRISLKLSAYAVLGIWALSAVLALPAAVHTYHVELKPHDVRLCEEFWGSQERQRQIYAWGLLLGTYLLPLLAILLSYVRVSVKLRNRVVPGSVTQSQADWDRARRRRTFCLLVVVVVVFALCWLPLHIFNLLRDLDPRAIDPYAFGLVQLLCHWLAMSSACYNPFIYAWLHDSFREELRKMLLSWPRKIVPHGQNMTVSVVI

T3: human PrRP receptor, GPR10, transfected in CHO cells (human, UniProt P49683 1-370)
T3 construct: whole, on cells; also called human GPR10 receptor; the human receptor GPR10 in CHO cells
T3 sequence (looked up): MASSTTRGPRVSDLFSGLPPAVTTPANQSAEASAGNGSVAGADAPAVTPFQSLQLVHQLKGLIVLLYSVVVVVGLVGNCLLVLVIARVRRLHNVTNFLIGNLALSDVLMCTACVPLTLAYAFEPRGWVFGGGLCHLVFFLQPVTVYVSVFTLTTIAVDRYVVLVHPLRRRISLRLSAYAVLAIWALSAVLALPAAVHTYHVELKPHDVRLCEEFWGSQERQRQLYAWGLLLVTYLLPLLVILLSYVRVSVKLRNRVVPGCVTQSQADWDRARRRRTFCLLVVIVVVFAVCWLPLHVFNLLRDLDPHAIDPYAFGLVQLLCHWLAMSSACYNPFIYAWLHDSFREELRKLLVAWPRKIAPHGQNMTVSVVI


What was measured:
[1] = molecular target: T1, rat PrRP receptor (GPR10) in RC-4B/C cells; details: Maletínská et al., 2011; cited from earlier work
[2] = molecular target: T2, rat PrRP receptor in RC-4B/C cells; assay: competition with 125I-rat PrRP31 on RC-4B/C cells
[3] = molecular target: T2, rat PrRP receptor in RC-4B/C cells; assay: competition with 125I-human PrRP31 on RC-4B/C cells; Ki by Cheng-Prusoff
[4] = molecular target: T2, rat PrRP receptor in RC-4B/C cells; assay: competition with 125I-rat PrRP31 on RC-4B/C cells; Ki by Cheng-Prusoff
Protocol: The rat pituitary cell line RC-4B/C (ATCC, Manassas, USA) was grown on 24-well plates which had their bottom coated with polyethyleneimine. The cells were grown to the optimal density of 300-450 thousand per well.
Plates were incubated for 60 minutes at room temperature. After incubation, the cells were solubilized in 0.1 mol/l solution of NaOH and the radioactivity bound to the cells was counted using a γ-counter. The experiments were performed in duplicate and repeated at least three times.

[5] = molecular target: T3, human PrRP receptor, GPR10, transfected …; assay: competition with 125I-human PrRP31 on CHO cells with transfected human GPR10
How it was run: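 Incubation lasted 60 min at room temperature. Cells were then solubilised in 0.1 mol/l NaOH and bound radioactivity γ-counted; duplicates, at least three repeats.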

| Molecule | Ki [2] | Ki [3] | Ki [4] | Ki [5] | Kb of binding to the pituitary cell line RC-4B/C [1] |
| --- | --- | --- | --- | --- | --- |
| [Tyr^31]PrRP20: N-acetylated PrRP20 analog, C-terminal phenylalanine replaced by tyrosine (Maletínská et al., 2011) (Ac-TPDINPAWYASRGIRPVGRY-NH2; ends and bridges not checked; UniProt P81277 34-53, looked up, variant F31Y) | – | – | – | – | comparable to values for PrRP31 and PrRP20 |
| SRTHRHSMEIRTPDINPAWYASRGIRPVGRF-NH2 (also called hPrRP31; analog no; 50) [Human PrRP31] | 1.78 nM | 3.01 nM | 1.54 nM | – | – |

More lines, main results first:

| Ki [2] | Ki [3] | Ki [4] | Ki [5] | Molecule | Kb of binding to the pituitary cell line RC-4B/C [1] |
| --- | --- | --- | --- | --- | --- |
| – | 2 nM | 2.28 nM | – | [Dap]RTHRHS[Nle]EIRTPDINPAWYASRGIRPVGRF-NH2 (N-terminus assumed; SMILES CCCC[C@H](NC(=O)[C@H](CO)NC(=O)[C@H](Cc1c[nH]cn1)NC(=O)[C@H](CCCNC(=N)N)NC(=O)[C@H](Cc1c[nH]cn1)NC(=O)[C@@H](NC(=O)[C@H](CCCNC(=N)N)NC(=O)[C@@H](N)CN)[C@@H](C)O)C(=O)N[C@@H](CCC(=O)O)C(=O)N[C@H](C(=O)N[C@@H](CCCNC(=N)N)C(=O)N[C@H](C(=O)N1CCC[C@H]1C(=O)N[C@@H](CC(=O)O)C(=O)N[C@H](C(=O)N[C@@H](CC(N)=O)C(=O)N1CCC[C@H]1C(=O)N[C@@H](C)C(=O)N[C@@H](Cc1c[nH]c2ccccc12)C(=O)N[C@@H](Cc1ccc(O)cc1)C(=O)N[C@@H](C)C(=O)N[C@@H](CO)C(=O)N[C@@H](CCCNC(=N)N)C(=O)NCC(=O)N[C@H](C(=O)N[C@@H](CCCNC(=N)N)C(=O)N1CCC[C@H]1C(=O)N[C@H](C(=O)NCC(=O)N[C@@H](CCCNC(=N)N)C(=O)N[C@@H](Cc1ccccc1)C(N)=O)C(C)C)[C@@H](C)CC)[C@@H](C)CC)[C@@H](C)O)[C@@H](C)CC, analog of human PrRP31) [analog no. 11] | – |
| 0.48 nM | 0.66 nM | 0.41 nM | 4.33 nM | Myristoyl-TPDINPAWYASRGIRPVGRF-NH2 (SMILES CCCCCCCCCCCCCC(=O)N[C@H](C(=O)N1CCC[C@H]1C(=O)N[C@@H](CC(=O)O)C(=O)N[C@H](C(=O)N[C@@H](CC(N)=O)C(=O)N1CCC[C@H]1C(=O)N[C@@H](C)C(=O)N[C@@H](Cc1c[nH]c2ccccc12)C(=O)N[C@@H](Cc1ccc(O)cc1)C(=O)N[C@@H](C)C(=O)N[C@@H](CO)C(=O)N[C@@H](CCCNC(=N)N)C(=O)NCC(=O)N[C@H](C(=O)N[C@@H](CCCNC(=N)N)C(=O)N1CCC[C@H]1C(=O)N[C@H](C(=O)NCC(=O)N[C@@H](CCCNC(=N)N)C(=O)N[C@@H](Cc1ccccc1)C(N)=O)C(C)C)[C@@H](C)CC)[C@@H](C)CC)[C@@H](C)O, also called analog no; 13) [myristoylated human PrRP20 (analog no. 55)] | – |
